According to article PMC11257196:

Target: human serum albumin (human) (UniProt P02768)
Assay: ultrafiltration

“interleukin-1 receptor antagonist in fusion to albumin binding domain (IL-1Ra-ABD) (from UniProt P18510 26-177)” was tested, and the percent bound was 78% and the percent released from HSA in the first 50 h was 80%.
